Source: patent publication US20250188167A1
Read-outs that look alike come from different tables or passages of the source.

What was measured:
human B7-H3 (human) [1] = target: human B7-H3 (human) (UniProt Q5ZPR3); assay: cell-based or functional assay
human B7-H3 (human) [2] = target: human B7-H3 (human) (UniProt Q5ZPR3); assay: flow cytometry (FACS) on CHO-K1 cells expressing human B7-H3; goat anti-human IgG (H+L) secondary
human B7-H3 (human) [3] = target: human B7-H3 (human) (UniProt Q5ZPR3); assay: flow cytometry (FACS) on CHO-K1/B7-H3 cells
human B7-H3 (human) [4] = target: human B7-H3 (human) (UniProt Q5ZPR3); assay: cell-based or functional assay; remark: listed apart in the source

Sequence of UniProt Q5ZPR3 (Q5ZPR3 29-534): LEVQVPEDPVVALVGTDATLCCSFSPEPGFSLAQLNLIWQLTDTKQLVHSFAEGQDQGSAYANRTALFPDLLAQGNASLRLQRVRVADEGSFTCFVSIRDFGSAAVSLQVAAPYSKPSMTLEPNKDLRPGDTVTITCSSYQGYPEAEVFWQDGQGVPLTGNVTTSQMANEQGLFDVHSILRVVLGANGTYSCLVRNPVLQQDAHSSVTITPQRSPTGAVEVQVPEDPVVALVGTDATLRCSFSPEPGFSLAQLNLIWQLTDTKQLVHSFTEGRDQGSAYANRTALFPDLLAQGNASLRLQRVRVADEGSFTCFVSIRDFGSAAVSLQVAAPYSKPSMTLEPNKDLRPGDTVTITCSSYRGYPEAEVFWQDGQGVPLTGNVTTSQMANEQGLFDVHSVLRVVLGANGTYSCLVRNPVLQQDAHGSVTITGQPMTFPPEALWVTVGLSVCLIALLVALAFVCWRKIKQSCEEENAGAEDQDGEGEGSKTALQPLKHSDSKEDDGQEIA

EC50 (human B7-H3 (human) [2]) [nM]	EC50 (human B7-H3 (human) [3]) [nM]	Molecule	also measured
81.6		MGA271-hIgG1 (antibody)	
	4.76	12C9F1B5 (antibody, V domains shown) VH: QIQLVQSGPELKKPGETVKISCKASGFTNYGMNWVKQAPGKGLKWMGWINPYSGVPTYADDFKGRFAFSLETSASTAYLQINNLKNEDTATYFCARDDGFHYTMDYWGQGTSVTVSS VL: DVVLTQTPLSLPVSLGDQASISCRSSQNLVHSNGITYLHWYLQKPGQSPKLLIYKVSNRFSGVPDRFSGSGSGTDFTLTISRVEAEDLGVYFCSQSTLVPWTFGGGTKLEIK	
	6.38	43H11G12 (antibody, V domains shown) VH: QIQLVQSGPELKKPGETVKISCKASGYNFRDFGMNWVKQAPGKGLKWMGWLNSYSGVPTYADDFKGRFVLSLETSASTAYLQINNLINEDTATYFCGRDDGYNYTMNYWGQGTSVTVSS VL: DVVMTQAPLSLPVSLGDQASISCRSSQSLVHSNGITYLHWYLQRAGQSPQLLIYKVSNRFSGVPDRFSGSGSGTDFTLKISRVEAEDLGVYFCSQSTHVPWTFGGGTKLEIK	
	1.38	37F11A10 (antibody, V domains shown) VH: QIQLVQSGPELKKPGETVKISCKASGDTFRNYGMNWVKQAPGKGLKWMGWINPYSGVPTYADDFKGRFAFSLETSASTAFLQINNLKNEDTATYFCARDDGFHYTMDYWGLGTSVTVSS VL: DVVMTQTPLSLPVSLGDQASISCRSSQSLLHSNGITYLHWYLQKPGQSPKLLTYKVSHRFSGVPDRFSGSGSGTDFTLKISRVEAEDLGVYFCSQSTHVPWTFGGGTKLEIR	
0.767		47F3F10B4-VH2-VL4 (antibody, human IgG1, kappa, V domains shown) VH: QVQLVQSGAEVKKPGASVKVSCKASGYTFTDHYMHWVRQAPGQGLEWMGYIFPNNGVSGYNQNFKDRVTMTRDTSTSTVYMELSSLRSEDTAVYYCARRQLGLGTMDYWGQGTLVTVSS VL: DIQMTQSPSSLSASVGDRVTITCRASKSVSTSGYNYMHWYQQKPGKAPKLLIYLASNLESGVPSRFSGSGSGTDFTLTISSLQPEDFATYYCQHSKELPWTFGQGTKVEIKR	
0.339		12C9F1B5-VH4-VL2 (antibody, human IgG1, kappa, V domains shown) VH: QVQLVQSGAEVKKPGASVKVSCKASGFTNYGMNWVRQAPGQRLEWMGWINPYSGVPTYADDFKGRVTITRDTSASTAYMELSSLRSEDTAVYYCARDDGFHYTMDYWGQGTLVTVSS VL: DIVMTQSPLSLPVTPGEPASISCRSSQNLVHSNGITYLHWYLQKPGQSPQLLIYKVSNRFSGVPDRFSGSGSGTDFTLKISRVEAEDVGVYYCSQSTLVPWTFGQGTKVEIKR	CDC % Relative activity (EC50 of positive control DS-5573a / EC50 of sample), plate 01 (human B7-H3 (human) [4]): 155%; CDC EC50 (% target cell lysis, Cell Titer-Glo), plate 01 (human B7-H3 (human) [4]): 0.384 µg/mL
0.153		12C9F1B5-VH2.1-VL2 (antibody, human IgG1, kappa, V domains shown) VH: QVQLVQSGAEVKKPGASVKVSCKASGFTNYGMNWVRQAPGQGLEWMGWINPYSGVPTYADDFKGRVTMTRDTSISTAYMELSRLRSDDTAVYYCARDDGFHYTMDYWGQGTLVTVSS VL: DIVMTQSPLSLPVTPGEPASISCRSSQNLVHSNGITYLHWYLQKPGQSPQLLIYKVSNRFSGVPDRFSGSGSGTDFTLKISRVEAEDVGVYYCSQSTLVPWTFGQGTKVEIKR	
	0.751	47F3F10B4 (antibody, V domains shown) VH: EVQLQQSGPELVKPGASVKMSCKASGYTFTDHYMHWVKQSHGKSLEWIGYIFPNNGVSGYNQNFKDKATLTVDKSSSTAYMDLRSLTPEDSAVYYCTRRQLGLGTMDYWGQGTSVTVSS VL: DIVLTQSPASLAVSLGQRATISCRASKSVSTSGYNYMHWYQQKPGQPPKLLIYLASNLESGVPARFSGSGSGTDFTLNIHPVEEEDAATYYCQHSKELPWTFGGGTKLEIK	
0.299		47F3F10B4-VH1-VL4(IgG1m) (antibody) heavy: QVQLVQSGAEVKKPGASVKVSCKASGYTFTDHYMHWVRQAPGQGLEWMGYIFPNNGVSGYNQNFKDRVTMTRDTSISTAYMELSRLRSDDTAVYYCARRQLGLGTMDYWGQGTLVTVSSASTKGPSVFPLAPSSKSTSGGTAALGCLVKDYFPEPVTVSWNSGALTSGVHTFPAVLQSSGLYSLSSVVTVPSSSLGTQTYICNVNHKPSNTKVDKRVEPKSCDKTHTCPPCPAPELVGGPSVFLLPPKPKDTLMISRTPEVTCVVVDVSHEDPEVKFNWYVDGVEVHNAKTKPPEEQYNSTLRVVSVLTVLHQDWLNGKEYKCKVSNKALPAPIEKTISKAKGQPREPQVYTLPPSREEMTKNQVSLTCLVKGFYPSDIAVEWESNGQPENNYKTTPLVLDSDGSFFLYSKLTVDKSRWQQGNVFSCSVMHEALHNHYTQKSLSLSPGK light: DIQMTQSPSSLSASVGDRVTITCRASKSVSTSGYNYMHWYQQKPGKAPKLLIYLASNLESGVPSRFSGSGSGTDFTLTISSLQPEDFATYYCQHSKELPWTFGQGTKVEIKRTVAAPSVFIFPPSDEQLKSGTASVVCLLNNFYPREAKVQWKVDNALQSGNSQESVTEQDSKDSTYSLSSTLTLSKADYEKHKVYACEVTHQGLSSPVTKSFNRGEC	CDC % Relative activity (EC50 of positive control DS-5573a / EC50 of sample), plate 02 (human B7-H3 (human) [4]): 445%; CDC EC50 (% target cell lysis, Cell Titer-Glo), plate 02 (human B7-H3 (human) [4]): 0.141 µg/mL

Further lines, the molecule ahead of its results:

Molecule	EC50 (human B7-H3 (human) [2]) [nM]	EC50 (human B7-H3 (human) [3]) [nM]	also measured
DS-5573a (antibody)			CDC % Relative activity (EC50 of positive control DS-5573a / EC50 of sample) (human B7-H3 (human) [1]): 100%; CDC % Relative activity (EC50 of positive control DS-5573a / EC50 of sample), plate 01 (human B7-H3 (human) [1]): 100%; CDC % Relative activity (EC50 of positive control DS-5573a / EC50 of sample), plate 02 (human B7-H3 (human) [1]): 100%; CDC EC50 (% target cell lysis, Cell Titer-Glo) (human B7-H3 (human) [1]): 0.69 µg/mL; CDC EC50 (% target cell lysis, Cell Titer-Glo), plate 01 (human B7-H3 (human) [1]): 0.595 µg/mL; CDC EC50 (% target cell lysis, Cell Titer-Glo), plate 02 (human B7-H3 (human) [1]): 0.628 µg/mL
MGA271 (Enoblituzumab) (antibody)	102	20.8	ADCC % Relative activity (EC50 of positive control MGA-271 / EC50 of sample), plate 01 (human B7-H3 (human) [1]): 100%; ADCC % Relative activity (EC50 of positive control MGA-271 / EC50 of sample), plate 02 (human B7-H3 (human) [1]): 100%; ADCC EC50 (% target cell lysis, LDH; NK92/CD16a-VV effector cells), plate 01 (human B7-H3 (human) [1]): 0.0394 µg/mL; ADCC EC50 (% target cell lysis, LDH; NK92/CD16a-VV effector cells), plate 02 (human B7-H3 (human) [1]): 0.0443 µg/mL
31H11B1 (antibody, V domains shown) VH: QVQLQQPGAELGKPGTSVKLSCKASGYTFTSYWMHWVKQRPGQGLEWIGHINPNSGSTNQNAKFKNKATLTVDESSSTAYMQLSTLTSEDSAVYYCTRSGSNYRRNYFDYWGQGTTLTVSS VL: DIQMTQSSSYLSVSLGGRVTITCKASDHINNWLAWYQQKPGNAPRLLISGATSLETGVPSRFSGSGSGKDYTLSITSLQTEDVATYYCQQYWSTPLTFGAGTKLELK		0.977	
38F11B2 (antibody, V domains shown) VH: QIQLVQSGPELKKPGETVKISCKASGYTFIDYGMNWVKQAPGKGLKWMGWINIYSGVPTYADDFKGRFAFSLETSANTAYLQINNLKNEDTATYFCARDDGYHYTMNYWGQGTSVTVSS VL: DIVMTQTPLSLPVSLGDQASISCRSSQSLVHSNGITYLHWYLQKSGQSPKLLIYKVSNRFSGVPDRFSGSGSGTAFTLKISRVEAEDLGVYFCSQSTHVPWTFGGGTKLEIK		0.651	
38D6A4 (antibody, V domains shown) VH: QIQLVQSGPELKKPGEAVKISCKASGSTFTDFGMNWVRQAPGKGLKWMGWINPYSGVPTYADEFKGRFVFSLETSARVAYMQINDLKNEDTATYFCARDDGYHYTMDYWGQGTSVTVSS VL: DVVMTQTPLPLPVSLGDQASISCRSSQSLIHSNGITYLHWYLQKPGQSPKLLIYKVSNRFSGVPDRFTGSGSGTDFTLKISRVEAEDLGVYFCSQSTHVPWTFGGGSKLEIR		1.78	
34A9C12 (antibody, V domains shown) VH: QIQLVQSGPELKKSGETVKISCKASGFTNYGINWVKQAPGKGLKWMGWINPYSGVPTYADDFKGRFAFSLETSASTAYLQINNLKNEDSATYFCARDDGFHYTMDYWGQGTSVTVSS VL: DVVLIQTPLSLPVSLGDQASISCRSSQNLVHSNGITYLHWYLQKPGQSPKLLIYKVSNRFSGVPDRFSGSGSGTDFTLKISRVEAEDLGVYFCSQSTLVPWTFGGGTKLEIK		0.822	
37D11F5B8 (antibody, V domains shown) VH: QIQLVQSGPELKKPGETVKISCKASGDTFRNNGMNWVKQAPGKGLKWMGWINPYSGVPTYADDFKGRFAFSLETSASTAFLQINNLKNEDTATYFCARDDGYHYTMDFWGLGTSVTVSS VL: DVVMTQTPLSLPVSLGDQASISCRSSQSLVHSNGITYLHWYLQKPGQSPKLLTYKVSHRFSGVPDRFSGSGSGTDFTLKISRVEAEDLGVYFCSQSTHVPWTFGGGTKLEIK		0.909	
47C7E3 (antibody, V domains shown) VH: QIQLVQSGPELKKPGETVKISCKASGYTFTNFGMNWVKQAPGKGLKWMGWIYTPSGVPIYADDFKGRFAVSLETSASTAYLQINNLKNEDTATYFCARDDGYYYTMDYWGQGTSVTVSS VL: DDVMTQTPLSLPVSLGDHASISCRSSQSLVHSNGDTYLHWYLQKPGQSPKLLIYKVSNRFSGVPDRFSGSGSGTDFTLKISRVEAEDLGVYFCSQSTHVPWTFGGGTKLEIK		0.87	
43H11G12-VH4-VL2 (antibody, human IgG1, kappa, V domains shown) VH: QVQLVQSGAEVKKPGASVKVSCKASGYNFRDFGMNWVRQAPGQRLEWMGWLNSYSGVPTYADDFKGRVTITRDTSASTAYMELSSLRSEDTAVYYCARDDGYNYTMNYWGQGTLVTVSS VL: DIVMTQSPLSLPVTPGEPASISCRSSQSLVHSNGITYLHWYLQKPGQSPQLLIYKVSNRFSGVPDRFSGSGSGTDFTLKISRVEAEDVGVYYCSQSTHVPWTFGQGTKVEIKR	0.155		CDC % Relative activity (EC50 of positive control DS-5573a / EC50 of sample), plate 01 (human B7-H3 (human) [4]): 104%; CDC EC50 (% target cell lysis, Cell Titer-Glo), plate 01 (human B7-H3 (human) [4]): 0.57 µg/mL
